Source: US8778635B2, “Thermostable proteins and methods making and using thereof” (Becton, Dickinson and Company, priority 2006, dated 2014)

Experiment: Circular dichroism melting temperature (Tm), CD signal at 222 nm versus temperature
Assay type: physicochemical
Set-up: key to + ΔTm / − ΔTm: Tm difference in °C from reference 3M-GGBP
Settings: for increase of Tm over the reference protein (in words): among the thirteen modified GGBPs, reference 3M-GGBP; for + ΔTm: increase of Tm over reference protein 3M-GGBP; for + ΔTm / − ΔTm: CD, PBS; for Previously Tested, See - Table II: ΔTm: repeated from Table II, modified 3M-GGBP versus 3M-GGBP; for − ΔTm: decrease of Tm versus reference protein 3M-GGBP
Experimental: Circular Dichroism (CD) spectra were preformed on a JASCO J-810. Samples of purified fluorophore-labeled proteins were exhaustively dialyzed into phosphate buffered saline (PBS) (comprised of 137 mM NaCl, 10 mM phosphate and 2.7 mM KCl, pH 7.4). The loss of secondary structure of 3M-GGBP and W183C-GGBP was observed by recording the CD signal at 222 nm as a function of temperature. During the experiment, the temperature of the sample changed at a rate of ˜1° C./min between 20 and 80° C. The apparent melting temperature at the midpoint of the transition (Tm) was obtained by fitting the experimental data points (CD signal versus temperature) with a sigmoidal function.

B1: Modified protein 1: 3M-GGBP (SEQ ID NO:3) with substitution N39I (protein)
chain: ADTRIGVTIYKYDDNFMSVVRKAIEQDAKAAPDVQLLMIDSQNDQSKQNDQIDVLLAKGVKALAINLVDPAAAGTVIEKARGQNVPVVFFNKEPSRKALDSYDKAYYVGTDSKESGIIQGDLIAKHWAANQGWDLNKDGQIQFVLLKGCPGHPDAEARTTYVIKELNDKGIKTEQLQLDTAMWDTAQAKDKMDAWLSGPNANKIEVVIANNDRMAMGAVEALKAHNKSSIPVFGVDASPEALALVKSGALAGTVLNDANNQAKATFDLAKNLADGKGAADGTNWKIDNKVVRVPYVGVDKDNLAEFSKK
  increase of Tm over the reference protein (in words): greatest increase of Tm
  + ΔTm: 1
  Previously Tested, See - Table II: ΔTm: +1

B2: Modified protein 13: 3M-GGBP (SEQ ID NO:3) with substitution N302T (protein)
chain: ADTRIGVTIYKYDDNFMSVVRKAIEQDAKAAPDVQLLMNDSQNDQSKQNDQIDVLLAKGVKALAINLVDPAAAGTVIEKARGQNVPVVFFNKEPSRKALDSYDKAYYVGTDSKESGIIQGDLIAKHWAANQGWDLNKDGQIQFVLLKGCPGHPDAEARTTYVIKELNDKGIKTEQLQLDTAMWDTAQAKDKMDAWLSGPNANKIEVVIANNDRMAMGAVEALKAHNKSSIPVFGVDASPEALALVKSGALAGTVLNDANNQAKATFDLAKNLADGKGAADGTNWKIDNKVVRVPYVGVDKDTLAEFSKK
  − ΔTm: 0.2

B3: Modified protein 6: 3M-GGBP (SEQ ID NO:3) with substitutions Q175I, Q177E (protein)
chain: ADTRIGVTIYKYDDNFMSVVRKAIEQDAKAAPDVQLLMNDSQNDQSKQNDQIDVLLAKGVKALAINLVDPAAAGTVIEKARGQNVPVVFFNKEPSRKALDSYDKAYYVGTDSKESGIIQGDLIAKHWAANQGWDLNKDGQIQFVLLKGCPGHPDAEARTTYVIKELNDKGIKTEILELDTAMWDTAQAKDKMDAWLSGPNANKIEVVIANNDRMAMGAVEALKAHNKSSIPVFGVDASPEALALVKSGALAGTVLNDANNQAKATFDLAKNLADGKGAADGTNWKIDNKVVRVPYVGVDKDNLAEFSKK
  − ΔTm: 0.3

B4: Modified protein 12: 3M-GGBP (SEQ ID NO:3) with substitutions N283D, W284L (protein)
chain: ADTRIGVTIYKYDDNFMSVVRKAIEQDAKAAPDVQLLMNDSQNDQSKQNDQIDVLLAKGVKALAINLVDPAAAGTVIEKARGQNVPVVFFNKEPSRKALDSYDKAYYVGTDSKESGIIQGDLIAKHWAANQGWDLNKDGQIQFVLLKGCPGHPDAEARTTYVIKELNDKGIKTEQLQLDTAMWDTAQAKDKMDAWLSGPNANKIEVVIANNDRMAMGAVEALKAHNKSSIPVFGVDASPEALALVKSGALAGTVLNDANNQAKATFDLAKNLADGKGAADGTDLKIDNKVVRVPYVGVDKDNLAEFSKK
  − ΔTm: 3.7
  Previously Tested, See - Table II: ΔTm: −3.7

B5: Modified protein 11: 3M-GGBP (SEQ ID NO:3) with substitutions K270Y, N271S (protein)
chain: ADTRIGVTIYKYDDNFMSVVRKAIEQDAKAAPDVQLLMNDSQNDQSKQNDQIDVLLAKGVKALAINLVDPAAAGTVIEKARGQNVPVVFFNKEPSRKALDSYDKAYYVGTDSKESGIIQGDLIAKHWAANQGWDLNKDGQIQFVLLKGCPGHPDAEARTTYVIKELNDKGIKTEQLQLDTAMWDTAQAKDKMDAWLSGPNANKIEVVIANNDRMAMGAVEALKAHNKSSIPVFGVDASPEALALVKSGALAGTVLNDANNQAKATFDLAYSLADGKGAADGTNWKIDNKVVRVPYVGVDKDNLAEFSKK
  − ΔTm: 3.5
  Previously Tested, See - Table II: ΔTm: −3.5

B6: Modified protein 4: 3M-GGBP (SEQ ID NO:3) with substitution N130D (protein)
chain: ADTRIGVTIYKYDDNFMSVVRKAIEQDAKAAPDVQLLMNDSQNDQSKQNDQIDVLLAKGVKALAINLVDPAAAGTVIEKARGQNVPVVFFNKEPSRKALDSYDKAYYVGTDSKESGIIQGDLIAKHWAADQGWDLNKDGQIQFVLLKGCPGHPDAEARTTYVIKELNDKGIKTEQLQLDTAMWDTAQAKDKMDAWLSGPNANKIEVVIANNDRMAMGAVEALKAHNKSSIPVFGVDASPEALALVKSGALAGTVLNDANNQAKATFDLAKNLADGKGAADGTNWKIDNKVVRVPYVGVDKDNLAEFSKK
  − ΔTm: 5.2
  Previously Tested, See - Table II: ΔTm: −5.2

B7: Modified protein 7: 3M-GGBP (SEQ ID NO:3) with substitutions G198S, P199S, N200K (protein)
chain: ADTRIGVTIYKYDDNFMSVVRKAIEQDAKAAPDVQLLMNDSQNDQSKQNDQIDVLLAKGVKALAINLVDPAAAGTVIEKARGQNVPVVFFNKEPSRKALDSYDKAYYVGTDSKESGIIQGDLIAKHWAANQGWDLNKDGQIQFVLLKGCPGHPDAEARTTYVIKELNDKGIKTEQLQLDTAMWDTAQAKDKMDAWLSSSKANKIEVVIANNDRMAMGAVEALKAHNKSSIPVFGVDASPEALALVKSGALAGTVLNDANNQAKATFDLAKNLADGKGAADGTNWKIDNKVVRVPYVGVDKDNLAEFSKK
  + ΔTm: 0.5
  Previously Tested, See - Table II: ΔTm: +0.5

B8: Modified protein 9: 3M-GGBP (SEQ ID NO:3) with substitution N226K (protein)
chain: ADTRIGVTIYKYDDNFMSVVRKAIEQDAKAAPDVQLLMNDSQNDQSKQNDQIDVLLAKGVKALAINLVDPAAAGTVIEKARGQNVPVVFFNKEPSRKALDSYDKAYYVGTDSKESGIIQGDLIAKHWAANQGWDLNKDGQIQFVLLKGCPGHPDAEARTTYVIKELNDKGIKTEQLQLDTAMWDTAQAKDKMDAWLSGPNANKIEVVIANNDRMAMGAVEALKAHKKSSIPVFGVDASPEALALVKSGALAGTVLNDANNQAKATFDLAKNLADGKGAADGTNWKIDNKVVRVPYVGVDKDNLAEFSKK
  + ΔTm: 0.3

B9: Modified protein 3: 3M-GGBP (SEQ ID NO:3) with substitutions G82E, Q83K, N84D (protein)
chain: ADTRIGVTIYKYDDNFMSVVRKAIEQDAKAAPDVQLLMNDSQNDQSKQNDQIDVLLAKGVKALAINLVDPAAAGTVIEKAREKDVPVVFFNKEPSRKALDSYDKAYYVGTDSKESGIIQGDLIAKHWAANQGWDLNKDGQIQFVLLKGCPGHPDAEARTTYVIKELNDKGIKTEQLQLDTAMWDTAQAKDKMDAWLSGPNANKIEVVIANNDRMAMGAVEALKAHNKSSIPVFGVDASPEALALVKSGALAGTVLNDANNQAKATFDLAKNLADGKGAADGTNWKIDNKVVRVPYVGVDKDNLAEFSKK
  increase of Tm over the reference protein (in words): greatest increase of Tm
  + ΔTm: 1.5

B10: Modified protein 10: 3M-GGBP (SEQ ID NO:3) with substitutions N259E, N260S (protein)
chain: ADTRIGVTIYKYDDNFMSVVRKAIEQDAKAAPDVQLLMNDSQNDQSKQNDQIDVLLAKGVKALAINLVDPAAAGTVIEKARGQNVPVVFFNKEPSRKALDSYDKAYYVGTDSKESGIIQGDLIAKHWAANQGWDLNKDGQIQFVLLKGCPGHPDAEARTTYVIKELNDKGIKTEQLQLDTAMWDTAQAKDKMDAWLSGPNANKIEVVIANNDRMAMGAVEALKAHNKSSIPVFGVDASPEALALVKSGALAGTVLNDAESQAKATFDLAKNLADGKGAADGTNWKIDNKVVRVPYVGVDKDNLAEFSKK
  increase of Tm over the reference protein (in words): greatest increase of Tm
  + ΔTm: 3.6

B11: Modified protein 8: 3M-GGBP (SEQ ID NO:3) with substitution N226G (protein)
chain: ADTRIGVTIYKYDDNFMSVVRKAIEQDAKAAPDVQLLMNDSQNDQSKQNDQIDVLLAKGVKALAINLVDPAAAGTVIEKARGQNVPVVFFNKEPSRKALDSYDKAYYVGTDSKESGIIQGDLIAKHWAANQGWDLNKDGQIQFVLLKGCPGHPDAEARTTYVIKELNDKGIKTEQLQLDTAMWDTAQAKDKMDAWLSGPNANKIEVVIANNDRMAMGAVEALKAHGKSSIPVFGVDASPEALALVKSGALAGTVLNDANNQAKATFDLAKNLADGKGAADGTNWKIDNKVVRVPYVGVDKDNLAEFSKK
  + ΔTm: 0.9

B12: Modified protein 5: 3M-GGBP (SEQ ID NO:3) with substitutions Q175E, Q177H, L178M (protein)
chain: ADTRIGVTIYKYDDNFMSVVRKAIEQDAKAAPDVQLLMNDSQNDQSKQNDQIDVLLAKGVKALAINLVDPAAAGTVIEKARGQNVPVVFFNKEPSRKALDSYDKAYYVGTDSKESGIIQGDLIAKHWAANQGWDLNKDGQIQFVLLKGCPGHPDAEARTTYVIKELNDKGIKTEELHMDTAMWDTAQAKDKMDAWLSGPNANKIEVVIANNDRMAMGAVEALKAHNKSSIPVFGVDASPEALALVKSGALAGTVLNDANNQAKATFDLAKNLADGKGAADGTNWKIDNKVVRVPYVGVDKDNLAEFSKK
  increase of Tm over the reference protein (in words): greatest increase of Tm
  + ΔTm: 3
